# Data reported in patent US20060110789.
# T1: diketide-ACP2(2) (DEBS ACP2 with its natural C-terminal linker, loaded with diketide), Q03131
# T1 chain: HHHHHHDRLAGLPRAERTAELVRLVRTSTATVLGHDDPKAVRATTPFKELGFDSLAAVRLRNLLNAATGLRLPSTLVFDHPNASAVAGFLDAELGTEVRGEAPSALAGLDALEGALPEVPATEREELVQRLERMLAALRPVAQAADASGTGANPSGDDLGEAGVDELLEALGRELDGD
# T2: diketide-ACP2(4) (DEBS ACP2 with the C-terminal linker of module 4, loaded with diketide), Q03131
# T2 chain: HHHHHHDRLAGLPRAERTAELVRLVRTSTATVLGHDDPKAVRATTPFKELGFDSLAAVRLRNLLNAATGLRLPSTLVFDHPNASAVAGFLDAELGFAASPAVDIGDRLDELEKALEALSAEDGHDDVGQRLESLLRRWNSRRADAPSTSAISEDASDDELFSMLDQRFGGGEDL
# T3: diketide-ACP4(4) (DEBS ACP4 with its natural C-terminal linker, loaded with diketide), Q03132
# T3 chain: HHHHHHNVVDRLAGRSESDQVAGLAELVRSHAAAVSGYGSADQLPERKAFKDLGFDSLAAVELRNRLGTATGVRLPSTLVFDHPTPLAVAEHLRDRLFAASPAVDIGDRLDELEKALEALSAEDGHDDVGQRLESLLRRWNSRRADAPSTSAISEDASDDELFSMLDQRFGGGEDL
# B1: M3+TE (module 3 of DEBS with its own N-terminal linker, fused to thioesterase) (protein)
# chain: VTDSEKVAEYLRRATLDLRAARQRIRELESIAIVSMACRLPGGVNTPQRLWELLREGGETLSGFPTDRGWDLARLHHPDPDNPGTSYVDKGGFLDDAAGFDAEFFGVSPREAAAMDPQQRLLLETSWELVENAGIDPHSLRGTATGVFLGVAKFGYGEDTAAAEDVEGYSVTGVAPAVASGRISYTMGLEGPSISVDTACSSSLVALHLAVESLRKGESSMAVVGGAAVMATPGVFVDFSRQRALAADGRSKAFGAGADGFGFSEGVTLVLLERLSEARRNGHEVLAVVRGSALNQDGASNGLSAPSGPAQRRVIRQALESCGLEPGDVDAVEAHGTGTALGDPIEANALLDTYGRDRDADRPLWLGSVKSNIGHTQAAAGVTGLLKVVLALRNGELPATLHVEEPTPHVDWSSGGVALLAGNQPWRRGERTRRARVSAFGISGTNAHVIVEEAPEREHRETTAHDGRPVPLVVSARTTAALRAQAAQIAELLERPDADLAGVGLGLATTRARHEHRAAVVASTREEAVRGLREIAAGAATADAVVEGVTEVDGRNVVFLFPGQGSQWAGMGAELLSSSPVFAGKIRACDESMAPMQDWKVSDVLRQAPGAPGLDRVDVVQPVLFAVMVSLAELWRSYGVEPAAVVGHSQGEIAAAHVAGALTLEDAAKLVVGRSRLMRSLSGEGGMAAVALGEAAVRERLRPWQDRLSVAAVNGPRSVVVSGEPGALRAFSEDCAAEGIRVRDIDVDYASHSPQIERVREELLETTGDIAPRPARVTFHSTVESRSMDGTELDARYWYRNLRETVRFADAVTRLAESGYDAFIEVSPHPVVVQAVEEAVEEADGAEDAVVVGSLHRDGGDLSAFLRSMATAHVSGVDIRWDVALPGAAPFALPTYPFQRKRYWLQPAAPAAASDELAYRVSWTPIEKPESGNLDGDWLVVTPLISPEWTEMLCEAINANGGRALRCEVDTSASRTEMAQAVAQAGTGFRGVLSLLSSDESACRPGVPAGAVGLLTLVQALGDAGVDAPVWCLTQGAVRTPADDDLARPAQTTAHGFAQVAGLELPGRWGGVVDLPESVDDAALRLLVAVLRGGGRAEDHLAVRDGRLHGRRVVRASLPQSGSRSWTPHGTVLVTGAASPVGDQLVRWLADRGAERLVLAGACPGDDLLAAVEEAGASAVVCAQDAAALREALGDEPVTALVHAGTLTNFGSISEVAPEEFAETIAAKTALLAVLDEVLGDRAVEREVYCSSVAGIWGGAGMAAYAAGSAYLDALAEHHRARGRSCTSVAWTPWALPGGAVDDGYLRERGLRSLSADRAMRTWERVLAAGPVSVAVADVDWPVLSEGFAATRPTALFAELAGRGGQAEAEPDSGPTGEPAQRLAGLSPDEQQENLLELVANAVAEVLGHESAAEINVRRAFSELGLDSLNAMALRKRLSASTGLRLPASLVFDHPTVTALAQHLRICCAGTAAISGPHEFTRLAGALRGIAPVRAVPQPGYEEGEPLPSSMAAVAAVQADAVIRTQGDKPFVVAGHSAGALMAYALATELLDRGHPPRGVVLIDVYPPGHQDAMNAWLEELTATLFDRETVRMDDTRLTALGAYDRLTGQWRPRETGLPTLLVSAGEPMGPWPDDSWKPTWPFEHDTVAVPGDHFTMVQEHADAIARHIDAWHHHHHH
# Key:
# [1] = biological target: T1, diketide-ACP2(2) (DEBS ACP2 with its …)
# [2] = biological target: T2, diketide-ACP2(4) (DEBS ACP2 with the …)
# [3] = biological target: T3, diketide-ACP4(4) (DEBS ACP4 with its …)
protein,measurement,setting,value
B1,k60 µM (overall rate of product formation at 60 µM substrate),[1],1.4 min-
same,kcat/KM,[1],6500 M⁻¹ s⁻¹
same,triketide lactone formation at 20 µM substrate (FIG. 27 A),[1],transfer of diketide from the donor ACP to the acceptor module occurred at 20 µM substrate concentration
same,"kcat/KM, fold decrease against the matched reaction (FIG. 27 B)",[2],"fell approximately 3-5 fold and 80-200 fold, respectively"
same,triketide lactone formation at 20 µM substrate (FIG. 27 B),[2],transfer of diketide from the donor ACP to the acceptor module occurred at 20 µM substrate concentration
same,triketide lactone formation at 20 µM substrate (FIG. 27 D),[3],no product was detected at the same substrate concentrations
